Measurements as given in publication PMC5377774.

Molecular target: His827 (UniProt position 827, GQFLDHDLDST)
Assay: kinetics (stopped-flow UV-vis spectroscopy)
Settings: 25 °C (stated for the stopped-flow reactions in general; not restated for the pH profile); Citrate phosphate buffer pH 4-5.5; phosphate buffer pH 5.5-8; carbonate buffer pH 9 and 10. A concentration of 100 mM is given for the analogous bromide pH profile in the Fig. 7D caption.; Ferric high-spin resting enzyme reacting with H2O2 to form compound I; heme covalently linked

For “Peroxidasin 1, truncated construct hsPxd01-con4 (four Ig domains + peroxidase domain) (Homo sapiens)”, which pKa is on record?
Its pKa is “∼4.7”.
